What was measured:
[1] = molecular target: T1, 5-Helix (tag-less version) (HIV-1 group M subtype B, HXB2 (gp41 …)); assay: ITC; details: both partners purified
T1 construct: source: E. coli, purified from the insoluble fraction under denaturing conditions (Superdex-200, reverse-phase HPLC)

[2] = molecular target: T1, 5-Helix (tag-less version); assay: cell-based or functional assay
[3] = molecular target: T1, 5-Helix (tag-less version); assay: ITC; details: both partners purified; remark: listed apart in the source

B1: Fab D5 (Fab, V domains shown)
VH: QVQLVQSGAEVRKPGASVKVSCKASGDTFSSYAISWVRQAPGQGLEWMGGIIPIFGTANYAQAFQGRVTITANESTSTAYMELSSLRSEDTAIYYCARDNPTLLGSDYWGAGTLVTVSS
VL: DIQMTQSPSTLSASIGDRVTITCRASEGIYHWLAWYQQKPGKAPKLLIYKASSLASGAPSRFSGSGSGTDFTLTISSLQPDDFATYYCQQYSNYPLTFGGGTKLEIK
notes: also called D5 (Fab format); D5 antibody; source: provided by Joseph Joyce (Merck Research Laboratories)
Q: How did the Kd [1] turn out when B1 was run?
A: ~10 nM

Q: What about the “HIV-1 neutralization IC50, Env-pseudotyped virus, 89.6 Env” value [2] of the same binder?
A: 890 nM

Q: What about the “HIV-1 neutralization IC50, Env-pseudotyped virus, HXB2 Env” value [2] of the same binder?
A: 300 nM

Q: And the “HIV-1 neutralization IC50, Env-pseudotyped virus, JR CSF Env” value [2]?
A: 640 nM

Q: And the “HIV-1 neutralization IC50, Env-pseudotyped virus, SF162 Env” value [2]?
A: 1300 nM

B2: IgG D5 (antibody, V domains shown)
VH: QVQLVQSGAEVRKPGASVKVSCKASGDTFSSYAISWVRQAPGQGLEWMGGIIPIFGTANYAQAFQGRVTITANESTSTAYMELSSLRSEDTAIYYCARDNPTLLGSDYWGAGTLVTVSS
VL: DIQMTQSPSTLSASIGDRVTITCRASEGIYHWLAWYQQKPGKAPKLLIYKASSLASGAPSRFSGSGSGTDFTLTISSLQPDDFATYYCQQYSNYPLTFGGGTKLEIK
notes: also called D5 monoclonal antibody; D5 IgG; source: provided by Joseph Joyce (Merck Research Laboratories); copies: 2 + 2
Q: Which “stoichiometry N” value [3] does the source give for B2 here?
A: 2 5-Helix per D5 IgG

Q: And the Kd [1]?
A: < 20 nM

Q: What about the “HIV-1 neutralization IC50, Env-pseudotyped virus, 89.6 Env” value [2] of the same binder?
A: 2240 nM

Q: What about the “HIV-1 neutralization IC50, Env-pseudotyped virus, HXB2 Env” value [2] of the same binder?
A: 230 nM

Q: What about the “HIV-1 neutralization IC50, Env-pseudotyped virus, JR CSF Env” value [2] of the same binder?
A: 640 nM

Q: And the “HIV-1 neutralization IC50, Env-pseudotyped virus, SF162 Env” value [2]?
A: 940 nM

Source: PMC2978731 (PLoS Pathogens, 2010)
